Tm data for 17 proteins are collected here from FireProtDB (doi:10.1126/science.aai7825).

B1: NADPH-dependent 7-cyano-7-deazaguanine reductase wild type, Q46920 (protein)
chain: MSSYANHQALAGLTLGKSTDYRDTYDASLLQGVPRSLNRDPLGLKADNLPFHGTDIWTLYELSWLNAKGLPQVAVGHVELDYTSVNLIESKSFKLYLNSFNQTRFNNWDEVRQTLERDLSTCAQGKISVALYRLDELEGQPIGHFNGTCIDDQDITIDNYEFTTDYLENATCGEKVVEETLVSHLLKSNCLITHQPDWGSLQIQYRGRQIDREKLLRYLVSFRHHNEFHEQCVERIFNDLLRFCQPEKLSVYARYTRRGGLDINPWRSNSDFVPSTTRLVRQ
B2: Transcriptional regulatory protein PhoP wild type, P23836 (protein)
chain: MRVLVVEDNALLRHHLKVQIQDAGHQVDDAEDAKEADYYLNEHIPDIAIVDLGLPDEDGLSLIRRWRSNDVSLPILVLTARESWQDKVEVLSAGADDYVTKPFHIEEVMARMQALMRRNSGLASQVISLPPFQVDLSRRELSINDEVIKLTAFEYTIMETLIRNNGKVVSKDSLMLQLYPDAELRESHTIDVLMGRLRKKIQAQYPQEVITTVRGQGYLFELR
B3: Ribosome-recycling factor wild type, P0A805 (protein)
chain: MISDIRKDAEVRMDKCVEAFKTQISKIRTGRASPSLLDGIVVEYYGTPTPLRQLASVTVEDSRTLKINVFDRSMSPAVEKAIMASDLGLNPNSAGSDIRVPLPPLTEERRKDLTKIVRGEAEQARVAVRNVRRDANDKVKALLKDKEISEDDDRRSQDDVQKLTDAAIKKIEAALADKEAELMQF
B4: tRNA pseudouridine synthase D wild type, Q57261 (protein)
chain: MIEFDNLTYLHGKPQGTGLLKANPEDFVVVEDLGFEPDGEGEHILVRILKNGCNTRFVADALAKFLKIHAREVSFAGQKDKHAVTEQWLCARVPGKEMPDLSAFQLEGCQVLEYARHKRKLRLGALKGNAFTLVLREVSNRDDVEQRLIDICVKGVPNYFGAQRFGIGGSNLQGAQRWAQTNTPVRDRNKRSFWLSAARSALFNQIVAERLKKADVNQVVDGDALQLAGRGSWFVATTEELAELQRRVNDKELMITAALPGSGEWGTQREALAFEQAAVAAETELQALLVREKVEAARRAMLLYPQQLSWNWWDDVTVEIRFWLPAGSFATSVVRELINTTGDYAHIAE
B5: HTH-type transcriptional repressor PurR wild type, P0ACP7 (protein)
chain: MATIKDVAKRANVSTTTVSHVINKTRFVAEETRNAVWAAIKELHYSPSAVARSLKVNHTKSIGLLATSSEAAYFAEIIEAVEKNCFQKGYTLILGNAWNNLEKQRAYLSMMAQKRVDGLLVMCSEYPEPLLAMLEEYRHIPMVVMDWGEAKADFTDAVIDNAFEGGYMAGRYLIERGHREIGVIPGPLERNTGAGRLAGFMKAMEEAMIKVPESWIVQGDFEPESGYRAMQQILSQPHRPTAVFCGGDIMAMGALCAADEMGLRVPQDVSLIGYDNVRNARYFTPALTTIHQPKDSLGETAFNMLLDRIVNKREEPQSIEVHPRLIERRSVADGPFRDYRR
B6: Multidrug efflux pump subunit AcrA wild type, P0AE06 (protein)
chain: MNKNRGFTPLAVVLMLSGSLALTGCDDKQAQQGGQQMPAVGVVTVKTEPLQITTELPGRTSAYRIAEVRPQVSGIILKRNFKEGSDIEAGVSLYQIDPATYQATYDSAKGDLAKAQAAANIAQLTVNRYQKLLGTQYISKQEYDQALADAQQANAAVTAAKAAVETARINLAYTKVTSPISGRIGKSNVTEGALVQNGQATALATVQQLDPIYVDVTQSSNDFLRLKQELANGTLKQENGKAKVSLITSDGIKFPQDGTLEFSDVTVDQTTGSITLRAIFPNPDHTLLPGMFVRARLEEGLNPNAILVPQQGVTRTPRGDATVLVVGADDKVETRPIVASQAIGDKWLVTEGLKAGDRVVISGLQKVRPGVQVKAQEVTADNNQQAASGAQPEQSKS
B7: Uncharacterized protein YjaG wild type, P32680 (protein)
chain: MLQNPIHLRLERLESWQHVTFMACLCERMYPNYAMFCQQTGFGDGQIYRRILDLIWETLTVKDAKVNFDSQLEKFEEAIPSADDFDLYGVYPAIDACVALSELVHSRLSGETLEHAVEVSKTSITTVAMLEMTQAGREMSDEELKENPAVEQEWDIQWEIFRLLAECEERDIELIKGLRADLREAGESNIGIIFQQ
B8: NH(3)-dependent NAD(+) synthetase wild type, P18843 (protein)
chain: MTLQQQIIKALGAKPQINAEEEIRRSVDFLKSYLQTYPFIKSLVLGISGGQDSTLAGKLCQMAINELRLETGNESLQFIAVRLPYGVQADEQDCQDAIAFIQPDRVLTVNIKGAVLASEQALREAGIELSDFVRGNEKARERMKAQYSIAGMTSGVVVGTDHAAEAITGFFTKYGDGGTDINPLYRLNKRQGKQLLAALACPEHLYKKAPTADLEDDRPSLPDEVALGVTYDNIDDYLEGKNVPQQVARTIENWYLKTEHKRRPPITVFDDFWKK
B9: Ribosomal protein uL3 glutamine methyltransferase wild type, P39199 (protein)
chain: MDKIFVDEAVNELQTIQDMLRWSVSRFSAANIWYGHGTDNPWDEAVQLVLPSLYLPLDIPEDMRTARLTSSEKHRIVERVIRRVNERIPVAYLTNKAWFCGHEFYVDERVLVPRSPIGELINNKFAGLISKQPQHILDMCTGSGCIAIACAYAFPDAEVDAVDISPDALAVAEQNIEEHGLIHNVIPIRSDLFRDLPKVQYDLIVTNPPYVDAEDMSDLPNEYRHEPELGLASGTDGLKLTRRILGNAADYLADDGVLICEVGNSMVHLMEQYPDVPFTWLEFDNGGDGVFMLTKEQLIAAREHFAIYKD
B10: Pyruvate formate-lyase 1-activating enzyme wild type, P0A9N4 (protein)
chain: MSVIGRIHSFESCGTVDGPGIRFITFFQGCLMRCLYCHNRDTWDTHGGKEVTVEDLMKEVVTYRHFMNASGGGVTASGGEAILQAEFVRDWFRACKKEGIHTCLDTNGFVRRYDPVIDELLEVTDLVMLDLKQMNDEIHQNLVGVSNHRTLEFAKYLANKNVKVWIRYVVVPGWSDDDDSAHRLGEFTRDMGNVEKIELLPYHELGKHKWVAMGEEYKLDGVKPPKKETMERVKGILEQYGHKVMF
B11: Acyl-CoA thioester hydrolase YciA wild type, P0A8Z0 (protein)
chain: MSTTHNVPQGDLVLRTLAMPADTNANGDIFGGWLMSQMDIGGAILAKEIAHGRVVTVRVEGMTFLRPVAVGDVVCCYARCVQKGTTSVSINIEVWVKKVASEPIGQRYKATEALFKYVAVDPEGKPRALPVE
B12: Homoserine O-succinyltransferase wild type, P07623 (protein)
chain: MPIRVPDELPAVNFLREENVFVMTTSRASGQEIRPLKVLILNLMPKKIETENQFLRLLSNSPLQVDIQLLRIDSRESRNTPAEHLNNFYCNFEDIQDQNFDGLIVTGAPLGLVEFNDVAYWPQIKQVLEWSKDHVTSTLFVCWAVQAALNILYGIPKQTRTEKLSGVYEHHILHPHALLTRGFDDSFLAPHSRYADFPAALIRDYTDLEILAETEEGDAYLFASKDKRIAFVTGHPEYDAQTLAQEFFRDVEAGLDPDVPYNYFPHNDPQNTPRASWRSHGNLLFTNWLNYYVYQITPYDLRHMNPTLD
B13: Zinc chaperone YeiR wild type, P33030 (protein)
chain: MTRTNLITGFLGSGKTTSILHLLAHKDPNEKWAVLVNEFGEVGIDGALLADSGALLKEIPGGCMCCVNGLPMQVGLNTLLRQGKPDRLLIEPTGLGHPKQILDLLTAPVYEPWIDLRATLCILDPRLLLDEKSASNENFRDQLAAADIIVANKSDRTTPESEQALQRWWQQNGGDRQLIHSEHGKVDGHLLDLPRRNLAELPASAAHSHQHVVKKGLAALSLPEHQRWRRSLNSGQGYQACGWIFDADTVFDTIGILEWARLAPVERVKGVLRIPEGLVRINRQGDDLHIETQNVAPPDSRIELISSSEADWNALQSALLKLRLATTA
B14: Acetylornithine deacetylase wild type, P23908 (protein)
chain: MKNKLPPFIEIYRALIATPSISATEEALDQSNADLITLLADWFKDLGFNVEVQPVPGTRNKFNMLASIGQGAGGLLLAGHTDTVPFDDGRWTRDPFTLTEHDGKLYGLGTADMKGFFAFILDALRDVDVTKLKKPLYILATADEETSMAGARYFAETTALRPDCAIIGEPTSLQPVRAHKGHISNAIRIQGQSGHSSDPARGVNAIELMHDAIGHILQLRDNLKERYHYEAFTVPYPTLNLGHIHGGDASNRICACCELHMDIRPLPGMTLNELNGLLNDALAPVSERWPGRLTVDELHPPIPGYECPPNHQLVEVVEKLLGAKTEVVNYCTEAPFIQTLCPTLVLGPGSINQAHQPDEYLETRFIKPTRELITQVIHHFCWH
B15: Enoyl-[acyl-carrier-protein] reductase [NADH] FabI wild type, P0AEK4 (protein)
chain: MGFLSGKRILVTGVASKLSIAYGIAQAMHREGAELAFTYQNDKLKGRVEEFAAQLGSDIVLQCDVAEDASIDTMFAELGKVWPKFDGFVHSIGFAPGDQLDGDYVNAVTREGFKIAHDISSYSFVAMAKACRSMLNPGSALLTLSYLGAERAIPNYNVMGLAKASLEANVRYMANAMGPEGVRVNAISAGPIRTLAASGIKDFRKMLAHCEAVTPIRRTVTIEDVGNSAAFLCSDLSAGISGEVVHVDGGFSIAAMNELELK
B16: Transcriptional repressor MprA wild type, P0ACR9 (protein)
chain: MDSSFTPIEQMLKFRASRHEDFPYQEILLTRLCMHMQSKLLENRNKMLKAQGINETLFMALITLESQENHSIQPSELSCALGSSRTNATRIADELEKRGWIERRESDNDRRCLHLQLTEKGHEFLREVLPPQHNCLHQLWSALSTTEKDQLEQITRKLLSRLDQMEQDGVVLEAMS
B17: Nicotinate phosphoribosyltransferase wild type, P18133 (protein)
chain: MTQFASPVLHSLLDTDAYKLHMQQAVFHHYYDVHVAAEFRCRGDDLLGIYADAIREQVQAMQHLRLQDDEYQWLSALPFFKADYLNWLREFRFNPEQVTVSNDNGKLDIRLSGPWREVILWEVPLLAVISEMVHRYRSPQADVAQALDTLESKLVDFSALTAGLDMSRFHLMDFGTRRRFSREVQETIVKRLQQESWFVGTSNYDLARRLSLTPMGTQAHEWFQAHQQISPDLANSQRAALAAWLEEYPDQLGIALTDCITMDAFLRDFGVEFASRYQGLRHDSGDPVEWGEKAIAHYEKLGIDPQSKTLVFSDNLDLRKAVELYRHFSSRVQLSFGIGTRLTCDIPQVKPLNIVIKLVECNGKPVAKLSDSPGKTICHDKAFVRALRKAFDLPHIKKAS

For the series the following is noted: Escherichia coli (strain K12); pH 7.5; Thermal; Intensity; HEPES 20mM; transition: 2; whole UniProt chain shown.
As for B1, the melting temperature (Tm) amounted to 43.9 °C.
Turning to B2, the Tm amounted to 42.6 °C.
The figure for B3 is 44.4 °C; for B4 it is 43.8 °C.
The figure for B5 is 45.6 °C; for B6 it is 45.7 °C; for B7 it is 46.1 °C.
As for B8, the midpoint of thermal melting (Tm) is 45.1 °C.
In the case of B9 it was 45.5 °C.
With B10, the Tm was 43.4 °C.
In the case of B11, the midpoint of thermal melting (Tm) was found to be 46.3 °C.
Turning to B12, the melting temperature (Tm) was determined as 45.7 °C.
In the case of B13 it was 46.2 °C; in that of B14, 45.9 °C.
Regarding B15, the Tm was 45.3 °C.
Regarding B16, the Tm was 45.9 °C.
As for B17, the melting temperature (Tm) was found to be 45.7 °C.

The term Tm denotes the temperature at the midpoint of the melting transition.
